Test results: the DeepSol protein solubility set

Assay: soluble on expression in E. coli; label from the status in PepcDB or PDB records

Sequence | soluble on expression in E. coli
MTQNINQLAVNTIRTLSIDAINAANSGHPGLPMGAAPMAYALWANHLNHNPNHPKWFNRDRFVLSAGHGSSLLYSLLHLAGYDVSIDDLKNFRKLNSKTPGHPEFGHTSGVEATTGPLGQGIANAVGMAMAEAHLAAKFNKDGHSIIDHNTYALVGDGDLMEGVAYEAMSMEGVAYEAMSMAGHMKLGKLIVLYDSNEISLDGELNIAFSEDMQKRVESAHWQYVRVEDGNDVDAITKAIQLAKDNTDQPTLIEIRTVIGYGSPKVAGTNKAHGNPLGLEEATATKQVYGWHYEEDFFVPEEVTAHFNELKQKGIEKERGWNEQFNLYRESNPALADELEKAIIGEVLIEAKDILSFDSEKTISTRVASGEAINHYVKSIPSIFGGSADLSHSTMTDIKGEAVYAVESYAGRNIYFGVREHAMGAAANGLALHGGVKPFVSTFFVFNDYLRPSIRLAALQKLPVTYVFTHDSIAVGEDGPTHEPIEHLAALRAIPGLTVIRPSDANETASAWAYALQQTEGPVVLVLSRQNLPVFHETKANIENLSKGAYVLTQTNENPDVILIATGSEVSLAASAKAKLEEDNVSVRIVAMPSWELFDRQSKEYKESVLPSSVTKRVSLEMGVSLGWERYVGQEGNILSIETFGASGTGAEVMNLFGFTTENVVQITKNVLNS | not soluble
MLKTILSIAGKPGLYKLISQGKNMLIVETVDAAKKRVPAYAHDKVISLADIAMYTDAEEVPLSEVLEAVKKKENGAVASINYKKASADELHAYFAEVLPNYDRDRVHNGDIKKLISWYNILVNNGITEFVEAPADSADKVEEAVAELEHHHHHH | soluble
MGSDKIHHHHHHQTQVIAHRGFWKTEGSAQNSIAALLKADSIGCYGSEFDVWLAADDQLVVNHDPTFKGKRMENSPSTALTAIKLDNGESLPTLAKYLKAAQPLHTRLILELKAHSTPLRETKAIEKIVALVKDMGLEERMEYITFSLHATKEFIRLAPEGTPVYYLDGNLSPKELKELGCAGPDYHYTVFRKHPEWIQECHDLGMKVNAWTVNKTDDMKWLIDRKVDFITTNEPVQLKNLLKK | not soluble
MGSDKIHHHHHHMKPNIITVILAAGASSRFHGAKMLAKVKGNQSLLARSIVSLNKVTATAGIKAPAVVLGAHLNDEIMAITATSHQIINPDWQQGLSSSVKHASQYAIEQQADALLLVLADQVAIDVDDYLHLIERYQQNGLTSCAFYRQDVGVPAIFLAKDFAVLMSIDGDKGAKSILKQHDKNNSLNIISMEQAQFDIDTPADLARWLDNKD | not soluble
MHKRATSPLSAARTRRKPHGWKKREDDGVGGRFLSIGECMVELSQAGNGLLRKGFAGDTFNAAWYARACLPQDWSVDYFTALGDDPLSEDMLAFIAEAGIGTEKIRRIKGGTPGLYLINLKDGERTFSYWRNAAAARQLAADADHLRKTVESADVVYFSGITLAILASAHDVDTFLAELRRARAAGKLVVFDPNIRPRLWADRDVMLETISNGARAATLVMPSFDDEASHFGDVSVEATIARYRSLGVENIVVKDGAKGATLDFGGSRSHAPAEKAVDVVDTTSAGDSFNGAFLARYVTGSSPEEAATFAARAAATVIGHHGALISPELLPLVG | not soluble
MRSKRWKTSDITDYGKKRKESESCGSSSPILETQSSGGAELDEVTEDEYSSNSSSNETSDEEENSEVPNVLSITEREKSWQKLTENDLGRIRFILKYTSNTKKCVNEYFQYNHGQNNEIMKSLLLDTDGTMTAKACSECAYDLNQCHCKKPLRFINAPCEVINQVLHVENAEPTRINHVIATLFRNHIGEIFTKARTAEARASEEAQIRIQIQDNSNAFQRSYHNDPQPSSAEEHEEDIVVDG | not soluble
MSLEEAVDLSVLYVEDDELSRSGIFNALKRKVKNIHFAANGQEGLEVFKEHRPDVVITDIKMPLLNGLEMAKQILEMEPSVEIIVATAFEDAELFKRAIDLDVDKYLTKPLDVTQILMHLKRIEMQKRLEREFEVYSRALNEVASIFWFDLELECLKVNPRAIASGGEHGVENEKLKEMARLALEKGGRHQEGNKIFSVAFNVAKEPKGFCLCVMESMEEGHHHHHH | soluble
MSADHDHDHDHDHDHKPAPMVEEVSDFEILEMAVRELAIEKGLFSAEDHRVWKDYVHTLGPLPAARLVAKAWLDPEYKKLCIEDGVEASKAVGVNWVTSPPTQFGTPSDYCNLRVLADSPTLKHVVVCTLCSCYPRPILGQSPEWYRSPNYRRRLVRWPRQVLAEFGLQLPSEVQIRVADSNQKTRYIVMPVRPEGTDGWTEDQLAEIVTRDCLIGVAVPKPGITVNAKRPVLKANRPVHHDH | soluble
MMKGSRRTGNNTATTLNTPVVIHATQLPQHVSTDEVLQFLESFIDEKENIIDIDTNLSSSISQLKRIQRDFKGLPPAQDFSAAPIQV | soluble
AQKLSATSRILSSSRGPAPDDIADFFGTDRAAQHITLRRLRLGNGRPYAIDNGWYNSEFAPDLLENDVYNSVYSILDRVYGVPVTQAEQTVTAVAADEDTARLLDVTPGAPLLRILRQSLSGDKPVEWCVSLYRTDRYS | not soluble
MSLAEAVAQGAFGKVISVRGSGARVGLLPSSRLVPSAVRATVGRFVSIRTASSTIIAIITEVSSENLAETDEHIAVASVDLLGEILPGPLRPKFQRGVTNYPTIGDSVDLISSDDLRIVYEPTGSDQIDVGTLQQDPSVIAYVDIEEMLSKHFAVLGSTGVGKSTGVSLLLNEILKSRPALRIFLLDVHNEYGRSFGDKALVLNPRNLKLPFWLFNFEEIVDVLFAGRPGVPEELDILAEVIPVAKGLYVQYTSTDRLGLKRVDPKSIGYTADTPVPYRLVDLISLIDERMGKLENRSSRIIYHKLISRIETVRNDPRYAFMFDNANVGGDTMADVISHLFRLPANGKPMTIMQLAGFPAEVVDSVVSVLCRMAFDFGLWSDGVSPLLFVCEEAHRYAAADRAIGFGPTRKAVSRIAKEGRKYGVYLGLVTQRPAELDATILSQCNTLFAMRLANDRDQSLLRSAVSDAAANLLSFVPSLGTREVLAFGEGVALPTRLRFKEVPAHQLPRSEAAISTVPSAAAGNDMHFVSAVLERWRGATSHRDVPNDPGIAERPLARTLDAPMLQPSLGLDPDRFSLLKKPLREGHHHHHH | soluble
MTHATVTQTVHYHNGETGGQMQADTTNEVNFDRTVTIDTVTGEITHYGDWEADGDDYFKGFDSPTFDGYFADVQHTGEVKGVDPEQGTVDDVTITYYALEHHHHHH | soluble
MEMVNAEAKQSVPLLTPYKMGRFNLSHRVVLAPLTRQKSYGSVPQPHAILYYSQRTSPGGFLIAEATGVSDTAQGYPDTPGIWTKEHVEAWKPIVDAVHAKGGIFFCQIWHVGRVSNRGFQPRRQAPISCTGKPIMPQMRANGIDEARFTPPRRLSIEEIPGIVNDFRLAARNAMEAGFDGVEIHGAHGYLIDQFMKDKVNDRTDEYGGSLQNRCKFALEVVDAVAKEIGPDRVGIRLSPFADYMESGDTNPEALGLYMVESLNKYGILYCHMIEPRMKTVGEIAACSHTLMPMREAFKGTFISAGGFTREDGNEAVAKGRTDLVAYGRWFLANPDLPKRFQLDAPLNKYNRSTFYTSDPVVGYTDYPSLESTA | soluble
MGSDKIHHHHHHMKGIEIVNYGGPEVAKVRTFSSPVRRSGEVMIQVVASSINPVDIKYMTPETIQKIPSFPAILGWDIAGIIIEADKNSNFSAGERVVAFHPQGSWQQLVTASENQVVKLPDNIDFISGGSIPLAASTALQALRRLRLEPGERLLVTGAAGSVGYYALQFALKMGVKASGLVRNKNQKMSINLLDTEIYTNDDPIPEFDAVFDTAGVLNRIDVIHKGGRLVTVSDEQIDPQVLKHTSFAEHNYVRVNKEDLEEIVHLVSEAKIETRVAKIYSFNNVQEALAQAIKSGNNGKVMLIF | not soluble
GLPRHSAVMERLRRRIELCRRHHSTCEARYEAVSPERLELERQHTFALHQRCIQAKAKRAGKH | soluble
MKSIISLMAACAIGAASFAAPAFAQDKGSVGIAMPTKSSARWIDDGNNIVKQLQEAGYKTDLQYADDDIPNQLSQIENMVTKGVKVLVIASIDGTTLSDVLKQAGEQGIKVIAYDRLIRNSGDVSYYATFDNFQVGVLQATSITDKLGLKDGKGPFNIELFGGSPDDNNAFFFYDGAMSVLKPYIDSGKLVVKSGQMGMDKVGTLRWDPATAQARMDNLLSAYYTDAKVDAVLSPYDGLSIGIISSLKGVGYGTKDQPLPVVSGQDAEVPSVKSIIAGEQYSTIFKDTRELAKVTVNMVNAVMEGKEPEVNDTKTYENGVKVVPSYLLKPVAVTKENYKQVLVDGGYYKEDQLK | not soluble
